The assay has as its target T1, recombinant human (rh) CD16A protein conjugated with APC fluorophore (human, UniProt P08637 17-208, APC fluorophore conjugate).
T1 construct: also called APC-tagged rhCD16A
The assay can be described thus: 'sandwich' flow cytometry: NB-EBC1 cells incubated with cSN, then stained with APC-conjugated rhCD16A. As for the experimental part:
FIGS. 3A-E. Production and binding characterization of BICEs. (FIG. 3A) Flow cytometry histograms showing His-tag cell surface expression in neuroblastoma cells incubated with concentrated supernatants (cSNs) from CAR constructs (CAR.GPC2, CAR.GPC2-BiCE.GD2 or CAR.GPC2-BICE.CD19) or 1×PBS and then stained with phycoerythrin (PE)-tagged anti-His-tag antibody. Neuroblastoma cells with high (NB-EBC1 and SMS-SAN) and low (SY5Y) GD2 expression were selected. Leukemia (NALM6) cells with high CD19 were utilized as controls. (FIG. 3B) Concentration-dependent binding of CAR.GPC2-BICE.GD2 cSN in GD2-high NB-EBC1 cells. (FIG. 3C) Binding competition assay between FDA-approved anti-GD2 antibody dinutuximab and CAR.GPC2-BiCE.GD2 cSNs. (FIG. 3D) Graphical scheme of the “sandwich” binding assays where GD2-expressing neuroblastoma cells were incubated with bicistronic vector cSNs and then stained with recombinant human (rh) CD16A protein previously conjugated with APC fluorophore. (FIG. 3E) Flow cytometry histograms showing CD16A sdAb APC staining in GD2-positive cells incubated with GPC2.CAR-GD2.BiCE cSN but not with control vector cSN (GPC2.CAR-CD19.BiCE).
Next, to study whether BiCEs might produce a molecular synapsis between GD2-expressing cells and CD16a, a “sandwich” binding assay was developed as illustrated in FIG. 3D. […]
Background: Flow cytometry measures light scatter and fluorescence of single cells or particles in a stream.

T1 sequence (P08637 17-208 limits assumed): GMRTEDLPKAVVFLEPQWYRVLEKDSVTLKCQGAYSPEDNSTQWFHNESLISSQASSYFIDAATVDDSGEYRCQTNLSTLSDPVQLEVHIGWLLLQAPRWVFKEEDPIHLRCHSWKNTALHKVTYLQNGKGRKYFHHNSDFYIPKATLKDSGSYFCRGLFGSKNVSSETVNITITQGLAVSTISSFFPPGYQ

B1: GD2-targeted bispecific innate immune cell engager (GD2 scFv 14g2a linked to CD16A single-domain antibody sdA1, His-tagged) (bispecific antibody)
chain: DILLTQTPLSLPVSLGDQASISCRSSQSLVHRNGNTYLHWYLQKPGQSPKLLIHKVSNRFSGVPDRFSGSGSGTDFTLKISRVEAEDLGVYFCSQSTHVPPLTFGAGTKLELKGSTSGSGKPGSGEGSTKGEVKLQQSGPSLVEPGASVMISCKASGSSFTGYNMNWVRQNIGKSLEWIGAIDPYYGGTSYNQKFKGRATLTVDKSSSTAYMHLKSLTSEDSAVYYCVSGMEYWGQGTSVTVSSGSTSGSGKPGSGEGSTKGEVQLVESGGGLVQPGGSLRLSCAASGFTFSNYGMSWVRQAPGKGLEWIGSIYYSGSTNYNPSLKSLVTISRDNSKNTLYLQMNSLRAEDTATYYCARESIDYWGQGTLVTVSSHHHHHH
notes: Used as concentrated supernatant (cSN) of HEK 293T cells transfected with the bicistronic GPC2.CAR-GD2.BiCE vector; also called GD2 BiCE; GD2.BiCE
As for B1, the binding result was “binds”.

Values taken from patent publication US20250032543A1 (CHILDREN S HOSPITAL OF PHILADELPHIA, published 2025).
